Reference: patent US20090191198A1 (EBERHARD KARLS UNIVERSITAT TUBINGEN, published 2009)

T1: soluble NKp80 ectodomain (NKp80-ED), biotinylated, used soluble or immobilized on streptavidin-coated … (human, UniProt Q9NZS2 64-231, biotinylated with BirA ligase at the BirA-tag ; Biotinylated by BirA ligase at the N-terminal BirA-tag (tag not in the letters). Used soluble or immobilized on streptavidin-coated microspheres. …)
T1 construct: Expressed in 293T cells from pSecTag2/HygroC; also called sNKp80-ED; imNKp80
T1 sequence: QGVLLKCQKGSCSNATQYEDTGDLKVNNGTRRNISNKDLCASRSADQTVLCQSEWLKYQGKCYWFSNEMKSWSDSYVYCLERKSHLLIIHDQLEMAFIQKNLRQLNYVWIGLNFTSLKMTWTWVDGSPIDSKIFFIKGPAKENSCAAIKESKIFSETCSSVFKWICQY

B1: NKp80-ED tetramers (biotinylated NKp80 ectodomain tetramerized with PE- or APC-labelled streptavidin) (receptor, not shown: large carriers; small tags and cut ends)
chain: T1 sequence
modifications: biotinylated with BirA ligase at the BirA-tag ; Biotinylated by BirA ligase at the BirA-tag. Tetramerized on phycoerythrin- or allophycocyanin-labelled streptavidin (four copies per streptavidin, carrier not in the letters).
notes: Same polypeptide as m1, tetramerized on labelled streptavidin before use; also called sNKp80-ED tetramers
B2: AICL (Activation-induced C-type Lectin), natural, on myeloid cells (U937, THP-1, monocytes, macrophages, granulocytes) or in their lysates (ligand)
chain: MMTKHKKCFIIVGVLITTNIITLIVKLTRDSQSLCPYDWIGFQNKCYYFSKEEGDWNSSKYNCSTQHADLTIIDNIEETNFLRRYKCSSDHWIGLKMAKNRTGQWVDGATFTKSFGMRGSEGCAYLSDDGAATARCYTERKWICRKRIH

Key:
[1] = molecular target: T1, soluble NKp80 ectodomain (NKp80-ED), …; assay: flow cytometry, NKp80-ED tetramers on microsphere-immobilized NKp80-ED
[2] = molecular target: B1; assay: flow cytometry, tetramers on U937 cells

Row | Binder | binding result [1] | binding result [2]
1 | B1 | no binding | –
2 | B2 | – | binds
